Measured values: the supplement of paper PMC10724198
± gives the standard deviation of the averaged measurements.

system: Saccharomyces cerevisiae; assay: protein stability index of tFT-peptide fusion (C-terminal peptide) (PSI (0-1 scale)); higher = more stable (slower turnover); settings: genetic background: wild type; temperature: 30 C
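Further: PSI is a weighted mean of sequencing reads over stability bins, variants kept only with over 10 reads, mCherry proximal and sfGFP distal, peptide attached via GGGS linker.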

In order of falling protein stability index:
1. SPSPALPPRIRF  0.818 ± 0.15
2. SSNLVDTCSPIG  0.778 ± 0.081
3. SSPQASILIRDF  0.778 ± 0.1
4. SPSPPPRRYLPL  0.757 ± 0.073
5. SSYFCESWMFDL  0.756 ± 0.023
6. SRALNAPAPFLP  0.747 ± 0.044
7. SSYHPPPSCLLP  0.74596 ± 0.00061
8. SSCGTITYLTPY  0.745 ± 0.015
9. SPSPHSPHPTPH  0.738 ± 0.085
10. SRVYRSCKNVKR  0.7383 ± 0.0069
11. STDQFFLFFCVG  0.735 ± 0.2
12. SSFLSLYSIPLP  0.734 ± 0.044
13. SSSAPSSVPPLG  0.734 ± 0.016
14. SSLPPSDQPPSP  0.733 ± 0.071
15. SSRALFLPSFLP  0.731 ± 0.04
16. STDNNLISEPKT  0.731 ± 0.097
17. SPTRNLPPFPPP  0.723 ± 0.054
18. SRPLSSPSPPPS  0.723 ± 0.043
19. SSGLMGFLFPMQ  0.721 ± 0.017
20. SRTWGDVVSSGT  0.715 ± 0.0099
21. SRTLPPPSPGLH  0.714 ± 0.013
22. SSPPPRSLPSPP  0.714 ± 0.046
23. SPRLDPLFRSPP  0.712 ± 0.017
24. SPRWAPPLPAWP  0.712 ± 0.014
25. SQMCHREESVTV  0.712 ± 0.004
26. SSSVPFRRYTHD  0.711 ± 0.017
27. SRFISTLPGLLA  0.708 ± 0.035
28. STAPQDPARPSE  0.707 ± 0.028
29. SRLFEFFISRNV  0.706 ± 0.013
30. SRFWLCGKCLWH  0.7051 ± 0.0045
31. SSPHQVLTTRAP  0.705 ± 0.13
32. SSTERLELERMS  0.705 ± 0.021
33. SSSSSSALSGFE  0.704 ± 0.051
34. SRHLALPPPRSF  0.702 ± 0.045
35. SRSPPPPALPPL  0.702 ± 0.05
36. SSLPASPAPPHL  0.702 ± 0.066
37. SSPLPPPPFAPL  0.702 ± 0.022
38. SRVKMKGTIRER  0.701 ± 0.021
39. SSASPVPVLPLT  0.7 ± 0.018
40. SSEGTRTLIPPD  0.7 ± 0.011
41. SPTPPTAPPSPL  0.699 ± 0.015
42. SPVPRIRPPPLL  0.699 ± 0.053
43. SPSPQPLRRAHP  0.698 ± 0.043
44. SRWDPLYVPWRM  0.696 ± 0.014
45. SSPVPLPPNPPA  0.696 ± 0.038
46. SSSVSARAVSLP  0.6958 ± 0.0033
47. SSPPWPILHSPP  0.6952 ± 0.0014
48. SPSSRTTNTHPA  0.694 ± 0.11
49. SRSRCGSRAVAF  0.694 ± 0.029
50. SSSRLLALSSLH  0.694 ± 0.053
51. SPTAHAPALPSP  0.692 ± 0.049
52. SRELPPPLLRSS  0.692 ± 0.072
53. SSSLHPRPSPPL  0.692 ± 0.043
54. SPRTVCPELHFI  0.691 ± 0.044
55. SRISQSMRFPIK  0.691 ± 0.027
56. SRKLRKSLFKKS  0.689 ± 0.045
57. SRPTAPKRQTRY  0.6886 ± 0.0046
58. SRGTTLDREQQR  0.687 ± 0.1
59. SRPQTTGPLPPL  0.684 ± 0.05
60. SRRVAPEPSIPP  0.683 ± 0.018
61. SSCAWGGGLEVG  0.683 ± 0.053
62. SSPPPPPRPAPT  0.681 ± 0.15
63. SQSEGTLELINK  0.679 ± 0.043
64. SSPESPPTPRSL  0.678 ± 0.064
65. SSPSPASSPPPP  0.677 ± 0.057
66. SSPIIAGFPQQK  0.676 ± 0.016
67. SRLPGLELCNRI  0.675 ± 0.041
68. SSPARASLTRPA  0.674 ± 0.038
69. SPSLSFPGIPLF  0.673 ± 0.052
70. SPVPPSPAPLLI  0.673 ± 0.018
71. SSSLPPPPHAFP  0.672 ± 0.036
72. SRVCPLLAPSLL  0.671 ± 0.067
73. SSCSDLTKRLQQ  0.669 ± 0.054
74. SRFAGVGGGGAR  0.667 ± 0.0071
75. SRLFSFLYDVTA  0.665 ± 0.036
76. SQPRRELGRPRG  0.662 ± 0.022
77. SPPSPLYFCSRF  0.661 ± 0.015
78. SSDSVPIVVGVV  0.66 ± 0.056
79. SPSPSPPPAISI  0.657 ± 0.015
80. SQTKRINSEKNN  0.654 ± 0.039
81. SRIFLFPTPTLF  0.651 ± 0.096
82. SPRRPPQHPTLL  0.65 ± 0.016
83. SPVSPTSNSPAC  0.649 ± 0.085
84. SRPIPSPPPRPV  0.6473 ± 0.002
85. SSLWVGFLGCVG  0.646 ± 0.008
86. SQCNRGSWRSPS  0.645 ± 0.0073
87. SRFRSGVAALPS  0.644 ± 0.033
88. SPPSPPALTPSP  0.643 ± 0.048
89. SRRSKDRAGVWV  0.642 ± 0.0079
90. SRYYMDRGTLLE  0.625 ± 0.018
91. SPRNIVFQPLSP  0.622 ± 0.069
92. STCFPSIVRLGP  0.612 ± 0.05
93. SSHSFFLFRISL  0.608 ± 0.061
94. SSKLFVVLPVSR  0.599 ± 0.028
95. SRGIRPYYRLLL  0.596 ± 0.0094
96. SSSCRCSRVIGR  0.589 ± 0.064
97. SRRMFCACYVLS  0.585 ± 0.031
98. SPRVLSLLLRSM  0.5811 ± 0.0036
99. SRGSMLRRPLFV  0.571
100. SRLPIVGYLTLL  0.56 ± 0.036
101. SRSGFWCYLLFL  0.553 ± 0.039
